Measured values published in patent publication US20260226138A1, “COMBINATION TUMOR THERAPY WITH THROMBOSIS INITIATION AND PLATELET RECRUITMENT” (Wisconsin Alumni Research Foundation, priority 2022, published 2026).

Columns and labels:
[1] = molecular target: integrin receptors on the angiogenic blood vessels in the tumor site; assay: cell-based or functional assay
CT26 tumor-bearing mice [2] = assay: Coagulation initiation after intratumoral injection, CT26 tumors; format: in vivo
Experimental: (§1) The coagulation initiation capability of tTF-RGD was investigated by treating CT26 tumor-bearing mice with 1.25 mg/kg of BSA, tTF, and tTF-RGD via intratumoral injection. Twenty-four hours later, the tumors were collected and subjected to H&E staining. To characterize the coagulation triggered by a lower dose of the tTF-RGD, 0.4 mg/kg of BSA, tTF, and tTF-RGD were administered into CT26 tumor-bearing mice via p.t. injection. Furthermore, mice bearing CT26 tumors were also treated with BSA, tTF and tTF-RGD (1.25 mg/kg) via i.v. injection every other day for 3 times in total. Twenty-four hours post injection of the last dose, the tumors and other major organs were collected and subjected to H&E staining.

CT26 subcutaneous tumor [3] = assay: Anti-tumor efficacy, subcutaneous CT26 model, systemic treating strategy; format: in vivo, Balb/C mice; settings: tTF or tTF-RGD i.v. 1.25 mg/kg, aPD-1 0.3 mg/kg i.v., 3 doses
Experimental: (§2) Anti-tumor efficacy of tTF-RGD+P-aPD-1: To establish a subcutaneous CT26 colon cancer model, Balb/C mice (6-8 weeks, male) were subcutaneously inoculated with 1×10^6 CT26 cells on the right flank. When the tumor volume reached100-150 mm^3, the mice were received different treatments, including saline, aPD-1, tTF-RGD, P-aPD-1, tTF+P-aPD-1 and tTF-RGD+P-aPD-1. For the local treating strategy, tTF or tTF-RGD (0.4 mg/kg) was firstly given by p.t. injection. Half an hour later, P-aPD-1 was administered via i.v. injection at the dose of 1 mg/kg. The treatment was conducted every other day for 3 times in total. For the systemic treating strategy, tTF or tTF-RGD (1.25 mg/kg) was first given by i.v. injection. One hour later, P-aPD-1 was administered via i.v. injection at the dose of 0.3 mg/kg. The treatment was conducted every other day for 3 times in total. The antibodies used in other treatment groups are also given at an equivalent dose. The tumor growth (calculated as: length×width^2×0.5) and body weight were monitored every other day. Mice were euthanized once the tumor volume exceeded 2 cm^3.

CT26 subcutaneous tumor [4] = assay: Anti-tumor efficacy, subcutaneous CT26 model, local treating strategy; format: in vivo, Balb/C mice; settings: tTF or tTF-RGD p.t. 0.4 mg/kg, aPD-1 1 mg/kg i.v., 3 doses
Experimental: as §2

CT26 tumor-bearing mice [5] = assay: Coagulation after p.t. injection of lower dose, CT26 tumors; format: in vivo; settings: 0.4 mg/kg
Experimental: as §1

CT26 tumors [6] = assay: Recruitment of P-aPD-1 to tumor, p.t. injected protein (local strategy); format: in vivo, mice
Experimental: (§3) Recruitment of P-aPD-1 by tTF-RGD treatment: The recruitment of P-aPD-1 to tumor sites by tTF-RGD-initiated coagulation was studied using IVIS. P-aPD-1 was reacted with sulfo-Cy5.5-NHS ester at room temperature for 1 h and washed three times with PBS to remove unreacted dyes. For the local treating strategy, BSA, tTF, and tTF-RGD were given at the dose of 0.4 mg/kg via p.t. injection to mice bearing CT26 tumors, followed by i.v. injection of approximately 1×10^8 P-aPD-1 (aPD-1:1 mg/kg). For the systemic treatment strategy, BSA, tTF, and tTF-RGD were given at the dose 1.25 mg/kg via i.v. injection to mice bearing CT26 tumors, followed by i.v. injection of approximately 1×10^8 P-aPD-1 (aPD-1:1 mg/kg). […] At 24 h, the mice were euthanized, and tumors were collected and visualized ex vivo.

CT26 tumors [7] = assay: Tumor coagulation by Cy5.5-labeled fibrinogen accumulation (IVIS); format: in vivo, mice
Experimental: To assess the tumor vasculature-coagulation triggered by tTF-RGD, fibrinogen was labeled with sulfo-Cy5.5-NHS ester and dialyzed against PBS to remove unreacted dyes. BSA, tTF or tTF-RGD were injected at the dose of 1.25 mg/kg via i.v. route to mice bearing CT26 tumors, followed by i.v. injection of 1 nmol of fibrinogen. […] At 24 h, the mice were euthanized, and tumors were collected and visualized ex vivo.

CT26 tumors [8] = tested on: CT26 tumors; set-up: species or system mice; settings: mouse, in vivo, iv, 1.25 mg/kg
Experimental: Tumor vasculature-targeting and coagulation initiating ability tTF-RGD: The tumor vasculature-targeting ability of tTF-RGD was investigated using IVIS. Briefly, tTF and tTF-RGD were labeled with sulfo-Cy5.5-NHS ester and dialyzed against PBS at 4° C. to remove unreacted dyes. Balb/C mice (6-8 weeks, male) were inoculated with 1×10^6 CT26 cells. When the tumor volumes reached 100-150 mm^3 (calculated as length×width^2×0.5), Cy5.5-labeled tTF or tTF-RGD were injected at the dose of 1.25 mg/kg via i.v. route to mice bearing CT26 tumors. […] At 24 h, the mice were euthanized, and tumors were collected and visualized ex vivo. The fluorescence was analyzed using Living Image Software v.4.3.1 (Perkin Elmer).

[9] = tested on: FX (proteolytic activation of FX by FVIIa); assay: FX activation assay; format: biochemical; settings: in the presence of factor VII (a) and Ca2+ ions
Experimental: The FX activation activity was tested using a modified procedure based on a previous report in the art. Briefly, to each well of a black 96-well plate was added 100 μL of BSA, tTF, and tTF-RGD with different concentrations in Tris-buffered saline containing 0.1% BSA. […] After 5 min of incubation at room temperature, FX (Haematologic Technologies, Inc.) was added to reach a final concentration of 30 nM and reacted for an additional 5 min. The reaction was quenched by addition of 20 μL of 100 mmol/L EDTA solution before 10 μL of 6-amino-1-naphthalenesulfonamide-based (ANSN) fluorogenic substrate (10 mM) (Haematologic Technologies, Inc.) was added to the mixture. Three minutes later, the fluorescence intensities were measured with a microplate reader (excitation=352 nm, emission=470 nm).

CT26 tumor-bearing mice [10] = assay: Coagulation after three i.v. doses, H&E of tumors and major organs; format: in vivo
Experimental: as §1

PDX breast tumors = assay: Recruitment of DiR-loaded PM-NP to PDX tumor (IVIS); format: in vivo, mice; settings: ex vivo, 24 h, i.v. 1.25 mg/kg
Experimental: Recruitment of PM-NP by tTF-RGD-triggered coagulation: The recruitment of PM-NP to tumor sites by tTF-RGD-initiated coagulation was studied using IVIS. NPs were loaded with DiR and coated with platelet membranes. The PM-NP was washed three times with PBS to remove unreacted dyes. tTF or tTF-RGD was given at the dose of 1.25 mg/kg via i.v. injection to mice bearing PDX breast tumors. One hour later, 2 mg of NPs and PM-NPs were administered via i.v. injection. […] At 24 h, the mice were euthanized, and tumors were collected and visualized ex vivo.

CT26 tumors [11] = assay: Recruitment of P-aPD-1 to tumor, i.v. injected protein (systemic strategy); format: in vivo, mice
Experimental: as §3

[12] = tested on: TM00096 human breast tumor PDX; assay: Coagulation in PDX tumors, H&E staining; format: in vivo, mice; settings: i.v. injection with PM-NP, 24 h
Text: Establishment of the PDX model: To establish the PDX model, TM00096 tumor samples were first propagated on Rag2-II2rg double knockout immunodeficient mice (R2G2® mice, 6-8 weeks, female) and then passaged to nude mice (6-8 weeks, female). Briefly, tumor tissues from R2G2® mice with TM00096 tumors were cut into small pieces, dispersed in the 1:1 mixture of DMEM medium and Matrigel® supplemented with FBS and antibiotics. The tiny tumor tissues were mixed well and placed on ice packs before being injected into the right flank of the nude mice using an 18-gauge needle (100 μL/mouse).
Next, it was determined if tTF-RGD can recruit PM-NP to tumor sites. To validate the translational potential of our treatment strategy, a clinically relevant PDX mouse model was established (FIG. 7C). TM00096 human breast tumor tissues were implanted on the flank of the immunodeficient mice. To affirm that systemic injection of tTF-RGD can initiate the tumor-selective coagulation on the PDX model, tTF+PM-NP or tTF-RGD+PM-NP were administered to the mice via i.v. injection as described above in the CT26-bearing mice model. Twenty-four hours later, the PDX tumors were collected and subjected to H&E staining. […] In order to visualize the tumor-selective accumulation of PM-NP, DiR dyes were encapsulated into NPs, which were further coated with platelet membranes. […]

## truncated tissue factor-Arg-Gly-Asp (RGD) fusion protein (tTF-RGD) (from UniProt P13726 33-250)
[1]
  mean fluorescence intensity (MFI) of tumor tissues ex vivo, 24 h after i.v. injection of Cy5.5-labeled protein, against the tTF group: 1.62 fold

B1: tTF-RGD: fused protein of truncated tissue factor (extracellular domain of TF) and RGD motif; SEQ ID NO: 9 (protein)
chain: SGTTNTVAAYNLTWKSTNFKTILEWEPKPVNQVYTVQISTKSGDWKSKCFYTTDTECDLTDEIVKDVKQTYLARVFSYPAGNVESTGSAGEPLYENSPEFTPYLETNLGQPTIQSFEQVGTKVNVTVEDERTLVRRNNTFLSLRDVFGKDLIYTLYYWKSSSSGKKTAKTNTNEFLIDVDKGENYCFSVQAVIPSRTVNRKSTDSPVECMGQEKGEFRRGD
CT26 tumor-bearing mice [2]; 1.25 mg/kg, data not shown
  hemorrhage and thrombus formation in tumors: significant hemorrhage and thrombus formation
CT26 tumor-bearing mice [2]; 24 h post-injection
  coagulation in tumors: severe coagulation
CT26 subcutaneous tumor [3]
  median survival time: 27 days
CT26 subcutaneous tumor [4]
  median survival time: 30 days
  tumor growth inhibition: negligible tumor-inhibiting activity
CT26 tumor-bearing mice [5]
  coagulation / hemorrhage in tumors: effectively triggered obvious coagulation without severe hemorrhage
CT26 tumors [6]; ex vivo, 24 h, protein p.t. 0.4 mg/kg
  fluorescence signals of P-aPD-1 in tumor tissues, increase versus tTF group: 1.87 fold
CT26 tumors [6]; p.t. injection
  Rhodamine B-labeled P-aPD-1 fluorescence in resected tumors compared to BSA and tTF: More fluorescence signals
CT26 tumors [6]; protein p.t. 0.4 mg/kg then i.v. P-aPD-1, from 4 h post injection
  accumulation of Cy5.5-labeled P-aPD-1 at tumor site (imaging): strong tendency to accumulate at the tumor site
CT26 tumors [7]; 24 h post i.v. injections, protein 1.25 mg/kg
  accumulation of Cy5.5-fibrinogen in tumors: strong signals
CT26 tumors [7]; ex vivo, 24 h, i.v. 1.25 mg/kg
  MFI of Cy5.5-fibrinogen in tumors, increase compared with tTF group: 2.37 fold
CT26 tumors [8]
  mean fluorescence intensity (MFI) of tumor tissues relative to tTF group: 1.62 fold
  tumor targeting ability, fluorescence signals at tumor site: much stronger tumor targeting ability than tTF
[9]
  FX activation activity: dose-dependent FX activation activity
CT26 tumor-bearing mice [10]; 24 h after three doses of i.v. injection, 1.25 mg/kg
  coagulation in tumor tissues (H&E): initiated apparent coagulation
CT26 tumor-bearing mice [10]; after 3 doses of i.v. injection
  hemorrhage or thrombus in other major organs (H&E): no obvious hemorrhage or thrombus in other major organs
CT26 tumor-bearing mice [10]; i.v. 1.25 mg/kg every other day for three times, data not shown
  hemorrhage / thrombosis: did not induce severe hemorrhage but could trigger thrombosis
PDX breast tumors
  MFI of tumors, accumulation of PM-NP, increase versus tTF treatment: 5.05 fold
CT26 tumors [11]; ex vivo, 24 h, protein i.v. 1.25 mg/kg
  accumulation of P-aPD-1 in tumor tissues, increase versus tTF group: 1.89 fold
CT26 tumors [11]; i.v. injection
  Rhodamine B-labeled P-aPD-1 fluorescence in resected tumors compared to BSA and tTF: More fluorescence signals
CT26 tumors [11]; protein i.v. 1.25 mg/kg then i.v. P-aPD-1, time-course
  distribution of Cy5.5-labeled P-aPD-1 at tumor sites (imaging) compared to tTF and BSA: increased distribution of P-aPD-1 at the tumor sites
[12]
  coagulation in PDX tumor tissues (H&E): could induce coagulation in PDX tumor tissues without severe hemorrhage
